The target of assay [1] is T1, NRP2-Fc (R&D Systems #2215-N2) (human, UniProt O60462 23-864, limits assumed).
T1 construct: Bought reagent; also called human NRP2; Neuropilin 2; not shown: Fc of the bought fusion
Nature of the assay: SPR, GARS Fc-WHEP immobilised, 20 nM NRP2 as analyte. In general terms: In SPR one partner is held on a chip, and binding of the other changes the refractive index at the surface.

Assay [2] concerns the target T1, NRP2-Fc (R&D Systems #2215-N2). The experiment in a line: SPR, MARS Fc-WHEP immobilised, 20 nM NRP2 as analyte.
The target in assay [3] is T2, NRP2a-GFP fusion protein on HEK293T cells (human, UniProt O60462 23-931).
T2 construct: Transiently transfected HEK293T cells, fixed before staining; also called NRP2v2-GFP; cell-expressed NRP2a; not shown: GFP and any linker of the Origene clone
The experiment in a line: immunofluorescence microscopy, competition on HEK293T cells overexpressing NRP2v2-GFP, GFP Bright gate; VEGF-C titrated, competitor 175 nM Fc-HRS(2-60)/anti-Fc-PE. As to the method: HEK293T cells previously transfected with NRP2v2-GFP were passed the night before staining to 96 well Greiner Clear flat bottomed Microplates pre-coated with collagen coating solution. Supernatants were removed and cells were washed 1 time with binding buffer. Cells were then fixed with 50 μL of 3.7% methanol-free formaldehyde for 20 minutes at room temperature. Cells were washed 2× with binding buffer and then blocked with 100 μL of blocking buffer for 1 hour at room temperature. The cells were then washed one time with binding buffer and then incubated with 50 μL of staining complex overnight at 4 degrees Celsius. […] The Hoechst stain was replaced with 1×PBS and subsequently read on an IN Cell Analyzer 2200. 20× images were acquired and analyzed using In Cell Analyzer 1000 Workstation software. Segmentation of the cell mask was achieved using the GFP channel, and the average PE signal intensity was determined within this mask above a threshold intensity of 5000 (termed GFP Bright cells).

For assay [4], the target named is T1, NRP2-Fc (R&D Systems #2215-N2). The experiment in a line: SPR (column: Binding to NRP2 observed by SPR).
For assay [5] the target is unchanged. The experiment in a line: SPR, WARS WHEP immobilised, 20 nM NRP2 as analyte.

B1: GARS Fc-WHEP (Fc fusion, UniProt P41250 63-119, looked up)
chain: VLAPLRLAVRQQGDLVRKLKEDKAPQVDVDKAVAELKARKRVLEAKELALQPKDDIV
notes: domain: WHEP domain; also called Fc domain fused to the WHEP domain of GARS; not shown: Fc domain
Regarding B1, the binding result in assay [1] was “no binding (tested: 20 nM)”.

B2: MARS Fc-WHEP (Fc fusion, UniProt P56192 841-897, looked up)
chain: QIQALMDEVTKQGNIVRELKAQKADKNEVAAEVAKLLDLKKQLAVAEGKPPEAPKGK
notes: domain: WHEP domain; also called Fc domain fused to the WHEP domain of MARS; not shown: Fc domain
For B2, in assay [2], the binding result is given as “no binding (tested: 20 nM)”.

B3: Recombinant Human VEGF-C Protein (R&D Systems cat 2179-VC-025/CF) (ligand, UniProt P49767 103-227, looked up)
chain: TEETIKFAAAHYNTEILKSIDNEWRKTQCMPREVCIDVGKEFGVATNTFFKPPCVSVYRCGGCCNSEGLQCMNTSTSYLSKTLFEITVPLSQGPKPVTISFANHTSCRCMSKLDVYRQVHSIIRR
notes: Reagent of the cell immunofluorescence assay; Its catalogue number differs from that of the SPR reagent
As for B3, the “IC50 (read off the curve)” value in assay [3] was about 2 nM.

B4: VEGF-A145 (R&D Systems #7626-VE-CF) (ligand, human, UniProt P15692-6 27-171, looked up)
chain: APMAEGGGQNHHEVVKFMDVYQRSYCHPIETLVDIFQEYPDEIEYIFKPSCVPLMRCGGCCNDEGLECVPTEESNITMQIMRIKPHQGQHIGEMSFLQHNKCECRPKKDRARQEKKSVRGKGKGQKRKRKKSRYKSWSVCDKPRR
With B4, the binding result in assay [4] is listed as “no binding”.

B5: WARS WHEP (other, UniProt P23381 8-64, looked up)
chain: SLLELFNSIATQGELVRSLKAGNASKDEIDSAVKMLVSLKMSYKAAAGEDYKADCPP
notes: domain: WHEP domain; also called WHEP domain of WARS with a V5/His tag; not shown: V5/His tag
As for B5, the binding result in assay [5] is “no binding (tested: 20 nM)”.

B6: VEGF-A121 (Peprotech #100-20A) (ligand, human, UniProt P15692-9 27-147, looked up)
chain: APMAEGGGQNHHEVVKFMDVYQRSYCHPIETLVDIFQEYPDEIEYIFKPSCVPLMRCGGCCNDEGLECVPTEESNITMQIMRIKPHQGQHIGEMSFLQHNKCECRPKKDRARQEKCDKPRR
With B6, the binding result in assay [4] is given as “no binding”.
